Test results from US20240409906, “INTEGRASES, LANDING PAD ARCHITECTURES, AND ENGINEERED CELLS COMPRISING THE SAME” (Asimov Inc., published 2024).

Assays:
Details in all cases: tags: C-terminal GS linker-SV40 NLS
Int11 = Int11 (Clostridium botulinum B str. Eklund 17B); test: cell_activity; attB x attP EGFP inversion reporter, HEK293FT
Int10 = biological target: T1, Int10 (Streptococcus pneumoniae 670-6B); test: cell_activity
T1 chain: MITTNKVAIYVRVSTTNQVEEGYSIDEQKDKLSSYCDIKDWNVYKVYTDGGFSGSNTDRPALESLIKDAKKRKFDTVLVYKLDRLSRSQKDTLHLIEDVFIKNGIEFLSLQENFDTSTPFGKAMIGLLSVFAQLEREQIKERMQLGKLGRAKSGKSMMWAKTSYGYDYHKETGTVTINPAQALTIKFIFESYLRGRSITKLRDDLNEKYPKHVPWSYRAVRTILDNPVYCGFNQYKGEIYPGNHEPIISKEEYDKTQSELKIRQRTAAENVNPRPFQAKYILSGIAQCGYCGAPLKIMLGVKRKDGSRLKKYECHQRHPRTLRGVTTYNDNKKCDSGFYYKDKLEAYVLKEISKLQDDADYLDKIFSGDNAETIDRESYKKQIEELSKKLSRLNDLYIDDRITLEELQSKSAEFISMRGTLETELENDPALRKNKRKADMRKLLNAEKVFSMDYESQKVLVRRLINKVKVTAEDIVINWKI

Int9 = biological target: T2, Int9 (Staphylococcus aureus str. Newman); test: cell_activity
T2 chain: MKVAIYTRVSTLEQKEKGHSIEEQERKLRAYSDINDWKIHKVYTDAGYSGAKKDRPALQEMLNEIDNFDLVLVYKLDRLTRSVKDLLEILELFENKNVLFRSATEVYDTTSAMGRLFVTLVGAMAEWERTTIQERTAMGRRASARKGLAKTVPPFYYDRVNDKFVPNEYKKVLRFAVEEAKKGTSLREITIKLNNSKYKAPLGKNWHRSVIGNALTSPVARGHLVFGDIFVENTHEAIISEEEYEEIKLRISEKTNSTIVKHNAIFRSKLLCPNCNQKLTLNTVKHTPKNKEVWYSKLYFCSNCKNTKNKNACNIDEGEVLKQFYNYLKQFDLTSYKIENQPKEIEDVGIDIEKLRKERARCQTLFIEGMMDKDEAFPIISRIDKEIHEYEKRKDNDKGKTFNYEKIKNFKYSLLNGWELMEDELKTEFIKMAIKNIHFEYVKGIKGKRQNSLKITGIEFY

Int2 = biological target: T3, Int2 (Streptomyces scabiei 87.22); test: cell_activity; attB x attP EGFP inversion reporter, HEK293FT
T3 chain: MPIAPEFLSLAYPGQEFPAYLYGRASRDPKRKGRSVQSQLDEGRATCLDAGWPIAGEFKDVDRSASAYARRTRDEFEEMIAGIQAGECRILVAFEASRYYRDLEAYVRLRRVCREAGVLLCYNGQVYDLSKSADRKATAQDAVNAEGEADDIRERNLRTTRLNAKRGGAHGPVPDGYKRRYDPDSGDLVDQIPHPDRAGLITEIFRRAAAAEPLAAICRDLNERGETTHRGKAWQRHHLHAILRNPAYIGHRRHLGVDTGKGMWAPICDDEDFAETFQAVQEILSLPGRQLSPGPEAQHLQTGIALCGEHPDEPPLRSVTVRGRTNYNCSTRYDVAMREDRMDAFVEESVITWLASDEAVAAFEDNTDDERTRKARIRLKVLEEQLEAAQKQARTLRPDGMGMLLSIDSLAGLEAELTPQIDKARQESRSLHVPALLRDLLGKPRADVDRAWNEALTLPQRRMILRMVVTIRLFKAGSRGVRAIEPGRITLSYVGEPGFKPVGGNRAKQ

Int8 = biological target: T4, Int8 (Staphylococcus haemolyticus JCSC1435); test: as above
T4 chain: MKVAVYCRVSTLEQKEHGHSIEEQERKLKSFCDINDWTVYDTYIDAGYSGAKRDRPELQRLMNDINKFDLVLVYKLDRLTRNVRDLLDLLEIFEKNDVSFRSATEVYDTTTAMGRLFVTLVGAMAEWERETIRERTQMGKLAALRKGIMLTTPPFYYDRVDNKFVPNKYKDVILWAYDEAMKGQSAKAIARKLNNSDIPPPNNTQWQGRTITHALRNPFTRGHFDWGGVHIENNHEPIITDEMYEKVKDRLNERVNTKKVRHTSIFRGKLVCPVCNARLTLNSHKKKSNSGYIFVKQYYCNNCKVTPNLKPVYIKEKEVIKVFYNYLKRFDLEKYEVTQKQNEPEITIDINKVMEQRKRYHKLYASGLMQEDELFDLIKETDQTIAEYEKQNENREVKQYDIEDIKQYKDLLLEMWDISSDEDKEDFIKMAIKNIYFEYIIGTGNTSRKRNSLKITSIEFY

Int3 = biological target: T5, Int3 (Streptococcus pyogenes M1 GAS (phage …)); test: cell_activity
T5 chain: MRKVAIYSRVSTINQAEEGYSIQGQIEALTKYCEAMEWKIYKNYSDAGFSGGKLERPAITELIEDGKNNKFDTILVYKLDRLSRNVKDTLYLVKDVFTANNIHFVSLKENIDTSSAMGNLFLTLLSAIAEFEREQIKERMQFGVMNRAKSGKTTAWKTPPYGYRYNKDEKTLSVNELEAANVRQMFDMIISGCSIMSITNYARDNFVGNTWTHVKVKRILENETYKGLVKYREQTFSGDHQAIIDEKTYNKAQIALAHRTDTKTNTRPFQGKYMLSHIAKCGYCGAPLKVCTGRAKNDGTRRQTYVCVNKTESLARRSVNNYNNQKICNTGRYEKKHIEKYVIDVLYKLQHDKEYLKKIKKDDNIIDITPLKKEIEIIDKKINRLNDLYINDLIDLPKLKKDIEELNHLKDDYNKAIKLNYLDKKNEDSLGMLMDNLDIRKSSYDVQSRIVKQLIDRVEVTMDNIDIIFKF

Int12 = biological target: T6, Int12 (Staphylococcus lugdunensis N920143); test: cell_activity; attB x attP EGFP inversion reporter, HEK293FT
T6 chain: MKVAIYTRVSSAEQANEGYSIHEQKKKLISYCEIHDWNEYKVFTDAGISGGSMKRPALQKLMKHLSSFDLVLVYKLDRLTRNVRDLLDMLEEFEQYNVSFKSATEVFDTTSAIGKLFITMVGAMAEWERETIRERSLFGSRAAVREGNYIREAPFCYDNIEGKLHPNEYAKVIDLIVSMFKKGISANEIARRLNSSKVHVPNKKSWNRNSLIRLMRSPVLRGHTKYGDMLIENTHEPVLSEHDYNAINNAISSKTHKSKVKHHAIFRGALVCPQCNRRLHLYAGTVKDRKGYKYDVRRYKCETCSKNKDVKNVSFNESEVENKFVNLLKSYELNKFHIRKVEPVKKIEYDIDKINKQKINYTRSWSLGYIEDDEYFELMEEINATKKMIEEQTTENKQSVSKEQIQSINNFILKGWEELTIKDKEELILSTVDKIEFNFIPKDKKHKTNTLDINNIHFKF

B1: Int11 attP (dsDNA)
DNA 1: GTTTATATGTTTACTAATAAGACGCTCTCAACCCATAAAGTCTTATTAGTAAACATATTTCAACT
DNA 2: AGTTGAAATATGTTTACTAATAAGACTTTATGGGTTGAGAGCGTCTTATTAGTAAACATATAAAC
Int11
  binding signal: 1.81 fraction of Bxb1

B2: Int10 attB (dsDNA)
DNA 1: AGCACGCTGATAATCAGCAAGACCACCAACATTTCCACCAATGTAAAAGCTTTAACCTTAGC
DNA 2: GCTAAGGTTAAAGCTTTTACATTGGTGGAAATGTTGGTGGTCTTGCTGATTATCAGCGTGCT
Int10
  binding signal: 5.49 fraction of Bxb1

B3: Int9 attB (dsDNA)
DNA 1: TTTATATTGCGAAAAATAATTGGCGAACGAGGTAACTGGATACCTCATCCGCCAATTAAAATTTG
DNA 2: CAAATTTTAATTGGCGGATGAGGTATCCAGTTACCTCGTTCGCCAATTATTTTTCGCAATATAAA
Int9
  binding signal: 0.08 fraction of Bxb1

B4: Int2 attB (dsDNA)
DNA 1: GGACGGCGCAGAAGGGGAGTAGCTCTTCGCCGGACCGTCGACATACTGCTCAGCTCGTC
DNA 2: GACGAGCTGAGCAGTATGTCGACGGTCCGGCGAAGAGCTACTCCCCTTCTGCGCCGTCC
Int2
  binding signal: 0.17 fraction of Bxb1

B5: Int8 attB (dsDNA)
DNA 1: CAATCATCAGATAACTATGGCGGCACGTGCATTAACCACGGTTGTATCCCGTCTAAAGTACTCGT
DNA 2: ACGAGTACTTTAGACGGGATACAACCGTGGTTAATGCACGTGCCGCCATAGTTATCTGATGATTG
Int8
  binding signal: 0.068 fraction of Bxb1

B6: Int9 attP (dsDNA)
DNA 1: GTGGTTGTTTTTGTTGGAAGTGTGTATCAGGTATCTGCATAGTTATTCCGAACTTCCAATTA
DNA 2: TAATTGGAAGTTCGGAATAACTATGCAGATACCTGATACACACTTCCAACAAAAACAACCAC
Int9
  binding signal: 0.08 fraction of Bxb1

B7: Int3 attB (dsDNA)
DNA 1: GTTTGTAAAGGAGACTGATAATGGCATGTACAACTATACTCGTCGGTAAAAAGGCATCTTAT
DNA 2: ATAAGATGCCTTTTTACCGACGAGTATAGTTGTACATGCCATTATCAGTCTCCTTTACAAAC
Int3
  binding signal: 1.11 fraction of Bxb1

B8: Int2 attP (dsDNA)
DNA 1: GCTCATGTATGTGTCTACGCGAGATTCTCGCCCGAGAACTTCTGCAAGGCACTGCTCTTGGCT
DNA 2: AGCCAAGAGCAGTGCCTTGCAGAAGTTCTCGGGCGAGAATCTCGCGTAGACACATACATGAGC
Int2
  binding signal: 0.17 fraction of Bxb1

B9: Int12 attB (dsDNA)
DNA 1: GTTCGTGGTAACTATGGGTGGTACAGGTGCCACATTAGTTGTACCATTTATGTTTATGTGGTTAAC
DNA 2: GTTAACCACATAAACATAAATGGTACAACTAATGTGGCACCTGTACCACCCATAGTTACCACGAAC
Int12
  binding signal: 0.821 fraction of Bxb1

B10: Int8 attP (dsDNA)
DNA 1: TTAATAAACTATGGAAGTATGTACAGTCTTGCAATGTTGAGTGAACAAACTTCCATAATAAAAT
DNA 2: ATTTTATTATGGAAGTTTGTTCACTCAACATTGCAAGACTGTACATACTTCCATAGTTTATTAA
Int8
  binding signal: 0.068 fraction of Bxb1

B11: Int10 attP (dsDNA)
DNA 1: GGAAAATATAAATAATTTTAGTAACCTACATCTCAATCAAGGATAGTAAAACTCTCACTCTT
DNA 2: AAGAGTGAGAGTTTTACTATCCTTGATTGAGATGTAGGTTACTAAAATTATTTATATTTTCC
Int10
  binding signal: 5.49 fraction of Bxb1

B12: Int3 attP (dsDNA)
DNA 1: ATGGATAAAAAAATACAGCGTTTTTCATGTACAACTATACTAGTTGTAGTGCCTAAATAATGCTT
DNA 2: AAGCATTATTTAGGCACTACAACTAGTATAGTTGTACATGAAAAACGCTGTATTTTTTTATCCAT
Int3
  binding signal: 1.11 fraction of Bxb1

B13: Int11 attB (dsDNA)
DNA 1: ATGGATTTTGCAGATTCCCAGATGCCCCTACAGAAAGAGGTACAAAACATTTATTGGAATTAATT
DNA 2: AATTAATTCCAATAAATGTTTTGTACCTCTTTCTGTAGGGGCATCTGGGAATCTGCAAAATCCAT
Int11
  binding signal: 1.81 fraction of Bxb1

B14: Int12 attP (dsDNA)
DNA 1: TTTTTGTATGTTAGTTGTGTCACTGGGTAGACCTAAATAGTGACACAACTGCTATTAAAATTTAA
DNA 2: TTAAATTTTAATAGCAGTTGTGTCACTATTTAGGTCTACCCAGTGACACAACTAACATACAAAAA
Int12
  binding signal: 0.821 fraction of Bxb1
